Test system: MS2 coat protein
Assay: apparent KD of MS2 coat protein; designed switch direction (-1 OFF switch, 1 ON switch): -1; higher = weaker reporter binding
How it was run: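 For each design, the apparent KD is the median over clusters of curves fitted to normalised cluster fluorescence. Clusters held RNA switches with common flanks, transcribed on Illumina chips by stalled E. coli RNA polymerase. These were titrated with SNAP-549-labelled MS2 coat protein, doubling from 0.7 or 1.5 nM to 3 µM, without input, with 200 uM small-molecule ligand, or with an oligonucleotide input.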

[1] = input ligand: microRNA oligo, concentration not stated
[2] = Eterna round: R95, input ligand: microRNA oligo, concentration not stated
[3] = Eterna round: R95, input ligand: FMN 200 uM
[4] = Eterna round: R95, input ligand: none

GAAAAUUGGGCAGGAUAUCUAAUGAAAGAAACCGGAGAAGGGCCGGUGGCAAUUGCAGACAUGAGGAUCACCCAUGUAGUUGCA [Eternabot solution 42] (Eterna round: R96, puzzle: Exclusion NG 1)
apparent KD of MS2 coat protein (input ligand: FMN 200 uM): 13.5 nM
apparent KD of MS2 coat protein [1]: 15.2 nM
apparent KD of MS2 coat protein (input ligand: none): 14.9 nM

AGUCCACUUACAAGCUUUUACAUGAGGAUCACCCAUGUGUGGGACCCUAAGGGUGCUCAUGACCGCUCCAUACUCUC [Eternabot (L1) Solution 4] (Eterna round: R97, puzzle: Sensor, turn-off variant 1)
apparent KD of MS2 coat protein (input ligand: FMN 200 uM): 240 nM
apparent KD of MS2 coat protein (input ligand: none): 254 nM

AUGUAACAUGAGGAUCACCCAUGUGAGGAUAUGCGAAUGAAUGAAUGAAUGAAUGUUAGCAGAAGGCACAAGUA [Default title] (Eterna round: R97, puzzle: Exclusion 1)
apparent KD of MS2 coat protein (input ligand: FMN 200 uM): 59.6 nM
apparent KD of MS2 coat protein (input ligand: none): 44.3 nM

UCGCUGCGAGGAUAUACGUUUGCGCGUUUUCGUUUGCGCGUACAUGAGGAUCACCCAUGUAGAAGGCGCGCUGC [Apr-15 SS2-10] (puzzle: Exclusion 2)
apparent KD of MS2 coat protein [2]: 13.3 nM

UAAUUUUUAGUAAGGAUAUCGGUCCCAAGGGACAACGAGAAGGUACAUGAGGAUCACCCAUGUUACGAAAGAAU [Mod of Zala 10 - Jieux - Brourd's Mod of Exclusion 4] (Eterna round: R97, puzzle: Brourd's mod of Exclusion 4)
apparent KD of MS2 coat protein (input ligand: FMN 200 uM): 17.6 nM
apparent KD of MS2 coat protein (input ligand: none): 18 nM

AAAACUGCCCAUAACCGCAAGCUUUUUGCUUGUCUUACCACAUGAGGAUCACCCAUGUGACAUGGGCUCCUUAUAAA [Arixeerat] (puzzle: Sensor v3, turn-off variant 2)
apparent KD of MS2 coat protein [3]: 14.1 nM
apparent KD of MS2 coat protein [2]: 8.53 nM
apparent KD of MS2 coat protein [4]: 12 nM

AAAGAGCGAGGAUAUACGUAUCGGUGCGGCCCGCCGAUGUGACAUGAGGAUCACCCAUGUAGAAGGCGCAGAAA [Excls2-X] (puzzle: Exclusion 2)
apparent KD of MS2 coat protein [2]: 21.3 nM

UACUACGCAGGAUAUACAUGAGGAUCACCCAUGUGUCUGCGAUAGGCACGUGAUAUCCGUAGAAGGGUGUAGAU [Exclusion 3 - Oddities v.1] (puzzle: Exclusion 3)
apparent KD of MS2 coat protein [2]: 30.7 nM

GAAAAGAAGCUAGGAUAUGCAUGACGGAUACCCGUGAGCACGUAGCAGACAUGAGGAUCACCCAUGUAGAAGGAGCGAAGAAAU [Veteriat] (Eterna round: R96, puzzle: Exclusion NG 2)
apparent KD of MS2 coat protein (input ligand: FMN 200 uM): 251 nM
apparent KD of MS2 coat protein [1]: 43.6 nM
apparent KD of MS2 coat protein (input ligand: none): 52.8 nM

ACAUGUCAUUGAGGAUAUCGCACACAUGAGGAUCACCCAUGUAAACGGAUGCUCUUACGUGGGUUCGAGAAGGCGAUGUACAUU [Ex NG2 #95] (Eterna round: R96, puzzle: Exclusion NG 2)
apparent KD of MS2 coat protein (input ligand: FMN 200 uM): 458 nM
apparent KD of MS2 coat protein [1]: 112 nM
apparent KD of MS2 coat protein (input ligand: none): 142 nM

ACAAGCUUUUUGCUCGGGUACAUGAGGAUCACCCAUGUUUGUGUUUAUUGAGGUUGUGUUGUCGUGCGCUGCAGGUU [JR_SV3TOV1_Sub077] (puzzle: Sensor v3, turn-off variant 1)
apparent KD of MS2 coat protein [3]: 59.3 nM
apparent KD of MS2 coat protein [2]: 38.7 nM
apparent KD of MS2 coat protein [4]: 66.5 nM

GGAAAUCAUGUAGGAUAUGCGUGGCGAAGCUAUGCAGAAGGACAUGAGGAUCACCCAUGUGCUUCCGUCUGCGUACAGACGGUA [Mat - Exclusion NG 1 - Mod of JL - D19] (Eterna round: R96, puzzle: Exclusion NG 1)
apparent KD of MS2 coat protein (input ligand: FMN 200 uM): 80.2 nM
apparent KD of MS2 coat protein [1]: 78.5 nM
apparent KD of MS2 coat protein (input ligand: none): 143 nM

CCCUGACAUGAGGAUCACCCAUGUUAGGAUAUAACAUUUGACACUACAGUGUGAAGUGUUAGAAGGGAUAUGGG [-27.9, -26.2 kcal, A 31%] (Eterna round: R97, puzzle: Exclusion 1)
apparent KD of MS2 coat protein (input ligand: FMN 200 uM): 32.4 nM
apparent KD of MS2 coat protein (input ligand: none): 28.7 nM

AGCAUGGUAGGAUAUACGGAACAUUAGGGUUUGUUAUGUGGACAUGAGGAUCACCCAUGUAGAAGGGCCGUGCA [Mat - Exclusion 2 - Mod of JL - D80] (puzzle: Exclusion 2)
apparent KD of MS2 coat protein [2]: 32.3 nM

AAACAAACGGCAGGAUAUCCUCGUCAACACCACAAGUCCACUCGGACAUGAGGAUCACCCAUGUAGGAGAAGGGUCAGAAAUAC [ExNG2 4th] (Eterna round: R96, puzzle: Exclusion NG 2)
apparent KD of MS2 coat protein (input ligand: FMN 200 uM): 37.2 nM
apparent KD of MS2 coat protein [1]: 24.6 nM
apparent KD of MS2 coat protein (input ligand: none): 37.1 nM

AUCAGUCGAGGAUAUACGAUCGUGCUUCGGCACGUAAGAUCACAUGAGGAUCACCCAUGUAGAAGGCGACUGAU [Mod 8 - Jieux - Exclusion 2] (Eterna round: R97, puzzle: Exclusion 2)
apparent KD of MS2 coat protein (input ligand: FMN 200 uM): 463 nM
apparent KD of MS2 coat protein (input ligand: none): 30.4 nM

GCAGCAUUGUUUACUAACAGUUACAUGAGGAUCACCCAUGUUCAGGAUAUGGUCUGGAUUACAGGCCAGAAGGGAACAAGCUGC [Eli exng3 - 031] (Eterna round: R96, puzzle: Exclusion NG 3)
apparent KD of MS2 coat protein (input ligand: FMN 200 uM): 9.09 nM
apparent KD of MS2 coat protein [1]: 9.39 nM
apparent KD of MS2 coat protein (input ligand: none): 15 nM

UAGGUGUAGUUAGGAUAUCGUUGCGAUUAGCUACGAGAAGGAACACAUGAGGAUCACCCAUGUCUACUCAAGAAACGAAAGGAA [6th something] (Eterna round: R96, puzzle: Exclusion NG 1)
apparent KD of MS2 coat protein (input ligand: FMN 200 uM): 29 nM
apparent KD of MS2 coat protein [1]: 22.1 nM
apparent KD of MS2 coat protein (input ligand: none): 24.9 nM

UUGACCCACGUCAGGAUAUCAAGAAAAGAGGCUCUUGAGAAGGGACAUGAGGAUCACCCAUGUAAGAAAUAAAU [Qumabibe] (puzzle: Brourd's mod of Exclusion 4)
apparent KD of MS2 coat protein [3]: 101 nM
apparent KD of MS2 coat protein [2]: 28.4 nM
apparent KD of MS2 coat protein [4]: 34.6 nM

GCCUUACAUGAGGAUCACCCAUGUCAGGAUAUGUCAGAGUAGGUAAAACACCACUCUAAUAGAAGGGACAUGCA [Diisarlais] (puzzle: Exclusion 1)
apparent KD of MS2 coat protein [2]: 16.5 nM

GAUAAGGUAGGAUAUACGAAGAAAGAGGGUAGUAAUAAUACACAUGAGGAUCACCCAUGUAGAAGGACCAAUAG [Mat - Exclusion 2 - Mod of my Tesla design - D43] (puzzle: Exclusion 2)
apparent KD of MS2 coat protein [3]: 39.1 nM
apparent KD of MS2 coat protein [2]: 26 nM
apparent KD of MS2 coat protein [4]: 26.4 nM

CCGGAAUAGCAGGAUAUAGGAGUCGAUAGACACCUAGAAGGGUUGACAUGAGGAUCACCCAUGUGUCCUACCGG [Fiskers Ex 6 - 82] (puzzle: Exclusion 6)
apparent KD of MS2 coat protein [3]: 322 nM
apparent KD of MS2 coat protein [2]: 247 nM
apparent KD of MS2 coat protein [4]: 519 nM

CUUUUGUGAGGAUAUUAGUAGUAUAUAAUUGGUGAUAUUGCUGAGAAGGCACAUGAGGAUCACCCAUGUACAAC [JR_Ex4_Sub034] (Eterna round: R97, puzzle: Exclusion 4)
apparent KD of MS2 coat protein (input ligand: FMN 200 uM): 369 nM
apparent KD of MS2 coat protein (input ligand: none): 441 nM

AGCGACCAAGGAUAUACAUGAGGAUCACCCAUGUCGGCGACCUUCCUGGGAUUUCUUAGUAGAAGGUGGUCAAU [Gesodieddi] (puzzle: Exclusion 3)
apparent KD of MS2 coat protein [2]: 35.2 nM

CUGGUCCGAGGAUAUAUUAAGUGAUACAUGAGGAUCACCCAUGUUAUUUGAUGGAUGUAAAUAGAAGGCGGACUAG [JL-ex5-3.17] (puzzle: Exclusion 5)
apparent KD of MS2 coat protein [3]: 37.1 nM
apparent KD of MS2 coat protein [2]: 38.9 nM
apparent KD of MS2 coat protein [4]: 45.2 nM

AAAACUGCCCAUGACCGCAAGCUUUUUGCUUGUCUUACCACAUGAGGAUCACCCAUGUGUCAUGGGCUCCUUAUAAA [Tisoanor] (puzzle: Sensor v3, turn-off variant 2)
apparent KD of MS2 coat protein [3]: 12.7 nM
apparent KD of MS2 coat protein [2]: 10.8 nM
apparent KD of MS2 coat protein [4]: 11.3 nM

CCGGAAAGGAAGGAUAUGCUAGACGAAAGUCUAGCAGAAGGUCCUACAUGAGGAUCACCCAUGUGGCCUCCCGG [Eli x6 4.09] (Eterna round: R97, puzzle: Exclusion 6)
apparent KD of MS2 coat protein (input ligand: FMN 200 uM): 267 nM
apparent KD of MS2 coat protein (input ligand: none): 137 nM

UUCGUGCAGCUUUGCUGUACGCGUACAUGAGGAUCACCCAUGUAGGAUAUGGUAGGCAAAGCUUACUAGAAGGAUAUGGUGAGC [Mat - Exclusion NG 3 - Mod of JL - D79] (Eterna round: R96, puzzle: Exclusion NG 3)
apparent KD of MS2 coat protein (input ligand: FMN 200 uM): 30.3 nM
apparent KD of MS2 coat protein [1]: 15.5 nM
apparent KD of MS2 coat protein (input ligand: none): 21.4 nM

UCCUGUUAUGUUAGGAUAUCUGGUUCGACUCGAACAGAGAAGGAACAUGAGGAUCACCCAUGUCCCGGUGAUAA [Eternabot (L2) Solution 19] (Eterna round: R97, puzzle: Brourd's mod of Exclusion 4)
apparent KD of MS2 coat protein (input ligand: FMN 200 uM): 85.6 nM
apparent KD of MS2 coat protein (input ligand: none): 33.1 nM

ACAAGCUAAAUCAUAUCUUACAUGAGGAUCACCCAUGUUUUUGCAAUUAUGUUUGGCCUCCUUUGUGCUCGUCUUAU [JR_STOV1_Sub051] (Eterna round: R97, puzzle: Sensor, turn-off variant 1)
apparent KD of MS2 coat protein (input ligand: FMN 200 uM): 16.4 nM
apparent KD of MS2 coat protein (input ligand: none): 16.7 nM
